From publication PMC10454150, “Molecular Mechanism of a FRET Biosensor for the Cardiac Ryanodine Receptor Pathologically Leaky State” (International Journal of Molecular Sciences, 2023)
Ends that are not written are not given here. QXL520 = non-fluorescent dark acceptor (quencher) probe

B1: acceptor-labeled DPc10 (A-DPc10), QXL520 at the N-terminus (peptide)
peptide: QXL520-GFCPDHKAAMVLFLDRVYGIEVQDFLLHLLEVGFLP
notes: also called acceptor-DPc10; source: synthetic peptide (AnaSpec)

Key:
[1] = target: type 2 ryanodine receptor (RyR2) channel in cardiac SR membranes (pig (endogenous in porcine heart SR)); assay: FRET or BRET; as a1 but 300 uM Ca2+, no DPc10
[2] = target: type 2 ryanodine receptor (RyR2) channel in cardiac SR membranes (pig (endogenous in porcine heart SR)); assay: FRET or BRET; as a1, 30 nM Ca2+, SR pre-treated with 50 uM unlabeled DPc10 for 60 min; apparent affinity
[3] = target: T1, type 2 ryanodine receptor (RyR2) channel in cardiac SR membranes (pig (endogenous in porcine heart SR), UniProt A0A5G2R1W3 1-4900); assay: FRET or BRET; FRET from D-FKBP (labelled position not stated for this experiment) on RyR2 in cardiac SR to A-DPc10 (QXL520), series of [A-DPc10]; 30 nM Ca2+, no CaM; Hill fit; settings: one partner purified
T1 construct: type 2 ryanodine receptor (RyR2), pig heart; homotetrameric assembly of 565-kDa protomers; 'intact RyR2 in cardiac SR vesicles'; In every assay RyR2 stood in native SR membranes and was preloaded with a donor-labelled FKBP12.6 (D-FKBP); also called cardiac ryanodine receptor; source: endogenous, SR vesicles isolated by differential ultracentrifugation of porcine ventricular tissue; residual …

[4] = target: T1, type 2 ryanodine receptor (RyR2) …; assay: FRET or BRET; FRET from D-14-FKBP on RyR2 in cardiac SR to A-DPc10, series of [A-DPc10]; Ca2+ not stated for this experiment; Hill fit; settings: one partner purified
[5] = target: T1, type 2 ryanodine receptor (RyR2) …; assay: FRET or BRET; FRET from D-49-FKBP on RyR2 in cardiac SR to A-DPc10, series of [A-DPc10]; Ca2+ not stated for this experiment; Hill fit; settings: one partner purified
[6] = target: T1, type 2 ryanodine receptor (RyR2) …; assay: FRET or BRET; as a6, 30 nM Ca2+, pre-incubated 40 min with unlabeled CaM (1 uM by the legend, 30 uM by the text); apparent affinity; Hill fit; settings: one partner purified
[7] = target: T1, type 2 ryanodine receptor (RyR2) …; assay: FRET or BRET; FRET from D-FKBP (labelled position not stated for this experiment) on RyR2 in cardiac SR to A-DPc10 (QXL520), series of [A-DPc10]; 30 nM Ca2+, no CaM; Hill fit; settings: one partner purified; remark: listed apart in the source
[8] = target: T1, type 2 ryanodine receptor (RyR2) …; assay: FRET or BRET; as a6 but 300 uM Ca2+, no CaM; Hill fit; settings: one partner purified
[9] = target: T1, type 2 ryanodine receptor (RyR2) …; assay: FRET or BRET; FRET from D-32-FKBP (loss-of-inhibition variant) on RyR2 in cardiac SR to A-DPc10, series of [A-DPc10]; Ca2+ not stated for this experiment; Hill fit; settings: one partner purified
[10] = target: T1, type 2 ryanodine receptor (RyR2) …; assay: FRET or BRET; as a6 but 300 uM Ca2+, pre-incubated 40 min with unlabeled CaM (1 uM by the legend, 30 uM by the text); apparent affinity; Hill fit; settings: one partner purified
[11] = target: T1, type 2 ryanodine receptor (RyR2) …; assay: FRET or BRET; FRET from D-85-FKBP on RyR2 in cardiac SR to A-DPc10, series of [A-DPc10]; Ca2+ not stated for this experiment; Hill fit; settings: one partner purified

Row | Molecule | fold higher affinity in 300 uM Ca2+ against 30 nM Ca2+ [1] [fold] | fold decrease of apparent affinity with 50 uM DPc10 against no DPc10 [2] [fold] | Kd [3] [µM] | Kd [4] [µM] | Kd [5] [µM] | Kd [6] [µM] | Kd [7] [µM] | Kd [8] [µM] | Kd [9] [µM] | Kd [10] [µM] | Kd [11] [µM]
1 | acceptor-labeled calmodulin (A-CaM), Alexa Fluor 555 at a cysteine substituted at position 34 (natural protein) | 2.7 | 4 |  |  |  |  |  |  |  |  | 
2 | B1 |  |  | 10.3 | 10 | 9.9 | 14.6 | 10.4 | 13.2 | 13.1 | 33.9 | 10.4
